In publication PMC2288870 one finds stoichiometry N data, which are given here for two substances.

For orientation: stoichiometry N means the number of molecules, sites or subunits per partner or assembly.

The target in test [1] is 50-kD chymotryptic fragment of thrombospondin (human). In words: non-reducing SDS-PAGE.
Test [2] has as its target 70-kD chymotryptic fragment of thrombospondin (human). Nature of the test: non-reducing SDS-PAGE.

“50-kD chymotryptic fragment of thrombospondin (domain or fragment)”: the stoichiometry N in test [1] was 3.

As to “70-kD chymotryptic fragment of thrombospondin (domain or fragment)”, the stoichiometry N in test [2] came to 3.
